Patent US20220251236A1 (Boehringer Ingelheim, published 2022)

T1: EGF2+3
T1 construct: also called Hu DLL3 EGF2+3 on HEK293 cells
T1 membrane-anchored DLL3 subdomain construct: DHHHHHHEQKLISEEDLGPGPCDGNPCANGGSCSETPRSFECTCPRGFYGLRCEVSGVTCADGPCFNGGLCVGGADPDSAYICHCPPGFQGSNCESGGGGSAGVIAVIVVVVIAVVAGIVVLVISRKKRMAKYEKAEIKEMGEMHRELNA

T2: EGF3+4
T2 construct: also called Hu DLL3 EGF3+4 on HEK293 cells
T2 membrane-anchored DLL3 subdomain construct: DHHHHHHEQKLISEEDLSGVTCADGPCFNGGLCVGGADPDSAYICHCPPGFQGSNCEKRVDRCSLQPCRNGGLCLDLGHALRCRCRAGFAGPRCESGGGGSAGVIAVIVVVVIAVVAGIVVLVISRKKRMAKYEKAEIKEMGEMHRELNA

T3: EGF4+5
T3 construct: also called Hu DLL3 EGF4+5 on HEK293 cells
T3 membrane-anchored DLL3 subdomain construct: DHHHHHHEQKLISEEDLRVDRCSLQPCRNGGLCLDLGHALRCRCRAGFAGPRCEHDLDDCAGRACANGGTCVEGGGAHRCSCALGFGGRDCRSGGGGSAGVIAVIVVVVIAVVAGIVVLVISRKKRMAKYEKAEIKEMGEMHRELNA

T4: EGF5+6
T4 construct: also called Hu DLL3 EGF5+6 on HEK293 cells
T4 membrane-anchored DLL3 subdomain construct: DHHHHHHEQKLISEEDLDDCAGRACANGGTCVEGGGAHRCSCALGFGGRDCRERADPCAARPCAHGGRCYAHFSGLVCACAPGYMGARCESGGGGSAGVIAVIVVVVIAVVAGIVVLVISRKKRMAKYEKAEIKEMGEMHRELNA

T5: EGF6+MEMBRANE PROXIMAL PEPTIDE
T5 construct: also called Hu DLL3 EGF6+membrane proximal peptide on HEK293 cells
T5 membrane-anchored DLL3 subdomain construct: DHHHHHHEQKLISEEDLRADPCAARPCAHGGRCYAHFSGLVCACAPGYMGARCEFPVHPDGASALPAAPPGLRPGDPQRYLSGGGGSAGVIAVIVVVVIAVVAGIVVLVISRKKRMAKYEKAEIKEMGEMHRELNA


Tests used:
[1] = molecular target: T6, trypsin inhibitor from glycine max soybean (Glycine max (soybean)); assay: SPR (Biacore T200), trypsin inhibitor on CM5 chip, sample at 1 µM
T6 construct: also called Tryp
Text: To prepare the surface for the non-specific binding experiment, chicken egg white lysozyme and trypsin inhibitor from glycine max soybean were coupled manually to a series S CM5 chip with the surface density of 3000-5000 RU using the amine coupling kit according to the manufacture instructions.

Human CD3 E+G HuFc-6xHis = molecular target: T7, Human CD3 E+G HuFc-6xHis (human); assay: SPR (ProteOn XPR36), HuCD3E_HuCD3G-Fc amine-coupled, bispecific as analyte, Example 4B
T7 construct: also called hu CD3εγ-Fc
Procedure: The binding affinity of purified DLL3/CD3 bispecific constructs for recombinant human DLL3-ECD and Fc-fusion protein of human CD3 εγ subunits was determined by Surface Plasmon Resonance (SPR), using a ProteOn XPR36 instrument (Bio-Rad).
For binding kinetic determination to CD3, HuCD3E_HuCD3G-Fc (dissolved in pH 4.5 acetate) was immobilized directly onto the sensor surface through amine coupling for 360 sec at a flowrate of 30 μl/min vertically. The baseline was stabilized by injecting PBS-T-EDTA for 60 sec at a flowrate of 30 μl/min horizontally. The analytes (all anti-DLL3/CD3 molecules) were injected horizontally over the captured antibody for 600 sec at a flowrate of 30 μl/min and a dissociation for 1800 sec.

EGF2+3 = molecular target: T1, EGF2+3; assay: flow cytometry on HEK293 cells expressing the DLL3 subdomain construct, PE anti-human secondary, control: secondary antibody only
Procedure: (§1) DLL3/CD3 binding proteins were produced by transient transfection of CHO-E cells with the pTT5 vectors carrying the chain-encoding genes, as described in Example 2. […] Bound molecules were detected with PE-conjugated anti-human secondary antibody (Sigma-Aldrich, #P8047). As negative control, cells were incubated with secondary antibody only.
(§2) The samples were measured by flow-cytometry. […] The sequences of the epitope domains are listed in Example 5, Table 3.

EGF3+4 = molecular target: T2, EGF3+4; assay: as above
Procedure: as §1, §2

EGF4+5 = molecular target: T3, EGF4+5; assay: as above
Procedure: as §1, §2

EGF5+6 = molecular target: T4, EGF5+6; assay: as above
Procedure: as §1, §2

[2] = molecular target: T5, EGF6+MEMBRANE PROXIMAL PEPTIDE; assay: as above
Procedure: as §1, §2

T7 sequence (chain, as listed by the source limits assumed): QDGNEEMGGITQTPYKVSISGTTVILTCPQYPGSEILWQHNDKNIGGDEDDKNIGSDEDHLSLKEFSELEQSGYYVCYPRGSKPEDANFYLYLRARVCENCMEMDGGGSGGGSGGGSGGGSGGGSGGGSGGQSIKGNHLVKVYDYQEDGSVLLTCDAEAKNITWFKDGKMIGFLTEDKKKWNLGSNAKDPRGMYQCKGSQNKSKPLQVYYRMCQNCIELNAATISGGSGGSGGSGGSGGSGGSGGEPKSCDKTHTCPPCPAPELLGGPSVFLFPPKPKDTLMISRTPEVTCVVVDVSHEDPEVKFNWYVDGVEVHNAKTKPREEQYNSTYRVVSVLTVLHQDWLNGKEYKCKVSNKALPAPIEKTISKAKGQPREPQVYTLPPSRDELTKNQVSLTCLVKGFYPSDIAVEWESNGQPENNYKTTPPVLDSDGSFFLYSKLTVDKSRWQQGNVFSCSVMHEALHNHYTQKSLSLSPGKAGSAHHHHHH
T6 sequence (P01070 25-205): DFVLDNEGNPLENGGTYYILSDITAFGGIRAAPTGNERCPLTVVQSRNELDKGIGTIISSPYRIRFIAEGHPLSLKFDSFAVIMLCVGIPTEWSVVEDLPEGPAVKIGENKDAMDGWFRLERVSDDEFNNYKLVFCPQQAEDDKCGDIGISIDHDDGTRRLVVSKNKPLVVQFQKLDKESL

Row | Binder | Non-specific binding (RU) [1] | Kd (Human CD3 E+G HuFc-6xHis) | binding result (EGF2+3) | binding result (EGF3+4) | binding result (EGF4+5) | binding result (EGF5+6) | binding result [2]
1 | DLL3#11/CD3#1 (bispecific antibody, human IgG1, kappa, lambda, L234A L235A, Heterodimer of one DLL3 chain and one CD3 chain (scFab-Fc, knob-in-hole)) chain 1: QIVLTQSPAIMSASPGEKVTITCSASSSVTYIHWFQQNPGTSPKLWIYRTSYLASGVPARFSGSGSGTSYSLTISRMEAEDAATYYCQQRSSYPRTFGGGTKLEIKRTVAAPSVFIFPPSDEQLKSGTASVVCLLNNFYPREAKVQWKVDNALQSGNSQESVTEQDSKDSTYSLSSTLTLSKADYEKHKVYACEVTHQGLSSPVTKSFNRGECGGGGSEGKSSGSGSESKSTEGKSSGSGSESKSTGGGGSQVQLQQPGAELVQPGSSVKMSCKASGYAFSDYWITWVKQRPGQGLEWIGDIYPGSGSTKSSEKFKNKATLTADTSSSKAYIQFSSLTPEDSAVYYCVSLYYYGSHYLDTWGQGTTLTVSSASTKGPSVFPLAPSSKSTSGGTAALGCLVKDYFPEPVTVSWNSGALTSGVHTFPAVLQSSGLYSLSSVVTVPSSSLGTQTYICNVNHKPSNTKVDKRVEPKSCDKTHTCPPCPAPEAAGGPSVFLFPPKPKDTLMISRTPEVTCVVVDVSHEDPEVKFNWYVDGVEVHNAKTKPREEQYNSTYRVVSVLTVLHQDWLNGKEYKCKVSNKALPAPIEKTISKAKGQPREPQVYTLPPSREEMTKNQVSLWCLVKGFYPSDIAVEWESNGQPENNYKTTPPVLDSDGSFFLYSKLTVDKSRWQQGNVFSCSVMHEALHNHYTQKSLSLSPG chain 2: EAVVTQEPSLTVSPGGTVTLTCRSSTGAVTTSNYANWVQEKPGQLPRGLIGGTNKRAPWVPARFSGSLLGGKAALTLSGAQPEDEAEYFCALWYSNLWVFGGGTKLTVLGQPKAAPSVTLFPPSSEELQANKATLVCLISDFYPGAVKVAWKADGSPVNTGVETTTPSKQSNNKYAASSYLSLTPEQWKSHRSYSCQVTHEGSTVEKTVAPAECSGGGGSEGKSSGSGSESKSTEGKSSGSGSESKSTGGGGSEVQLVESGGGLVQPGGSLKLSCAASGFTFNTYAMNWVRQAPGKGLEWVARIRSKYNNYATYYADSVKDRFTISRDDSKNTAYLQMNNLKTEDTAVYYCVRHGNFGNSYVSWFAYWGQGTLVTVSAASTKGPSVFPLAPSSKSTSGGTAALGCLVKDYFPEPVTVSWNSGALTSGVHTFPAVLQSSGLYSLSSVVTVPSSSLGTQTYICNVNHKPSNTKVDKRVEPKSCDKTHTCPPCPAPEAAGGPSVFLFPPKPKDTLMISRTPEVTCVVVDVSHEDPEVKFNWYVDGVEVHNAKTKPREEQYNSTYRVVSVLTVLHQDWLNGKEYKCKVSNKALPAPIEKTISKAKGQPREPQVYTLPPSREEMTKNQVSLSCAVKGFYPSDIAVEWESNGQPENNYKTTPPVLDSDGSFFLVSKLTVDKSRWQQGNVFSCSVMHEALHNRFTQKSLSLSPG | 13 RU | 2 nM | no binding (tested: 1.6 nM) | no binding (tested: 1.6 nM) | no binding (tested: 1.6 nM) | no binding (tested: 1.6 nM) | no binding (tested: 1.6 nM)
2 | DLL3#7/CD3#1 (bispecific antibody, human IgG1, kappa, lambda, L234A L235A) chain 1: EIVLTQSPDTLSLSPGERATLSCRASQSVNSNFLAWYQQKPGQTPRLLIFGTSSRATGIPDRFSGSGSGTDFTLTISRLEPEDFAVYYCQQYGSSPWTFGQGTKVEIRRTVAAPSVFIFPPSDEQLKSGTASVVCLLNNFYPREAKVQWKVDNALQSGNSQESVTEQDSKDSTYSLSSTLTLSKADYEKHKVYACEVTHQGLSSPVTKSFNRGECGGGGSEGKSSGSGSESKSTEGKSSGSGSESKSTGGGGSQVQLVESGGGVVQPGRSLRLSCAASGFTFSSYGMFWVRQAPGKGLEWVAVIWLDGDDEDYVDSVKGRFTISRDDSKNTLYLQMNSLRVDDTAIYYCARVLDYWGQGTLVTVSSASTKGPSVFPLAPSSKSTSGGTAALGCLVKDYFPEPVTVSWNSGALTSGVHTFPAVLQSSGLYSLSSVVTVPSSSLGTQTYICNVNHKPSNTKVDKRVEPKSCDKTHTCPPCPAPEAAGGPSVFLFPPKPKDTLMISRTPEVTCVVVDVSHEDPEVKFNWYVDGVEVHNAKTKPREEQYNSTYRVVSVLTVLHQDWLNGKEYKCKVSNKALPAPIEKTISKAKGQPREPQVYTLPPSREEMTKNQVSLWCLVKGFYPSDIAVEWESNGQPENNYKTTPPVLDSDGSFFLYSKLTVDKSRWQQGNVFSCSVMHEALHNHYTQKSLSLSPG chain 2: EAVVTQEPSLTVSPGGTVTLTCRSSTGAVTTSNYANWVQEKPGQLPRGLIGGTNKRAPWVPARFSGSLLGGKAALTLSGAQPEDEAEYFCALWYSNLWVFGGGTKLTVLGQPKAAPSVTLFPPSSEELQANKATLVCLISDFYPGAVKVAWKADGSPVNTGVETTTPSKQSNNKYAASSYLSLTPEQWKSHRSYSCQVTHEGSTVEKTVAPAECSGGGGSEGKSSGSGSESKSTEGKSSGSGSESKSTGGGGSEVQLVESGGGLVQPGGSLKLSCAASGFTFNTYAMNWVRQAPGKGLEWVARIRSKYNNYATYYADSVKDRFTISRDDSKNTAYLQMNNLKTEDTAVYYCVRHGNFGNSYVSWFAYWGQGTLVTVSAASTKGPSVFPLAPSSKSTSGGTAALGCLVKDYFPEPVTVSWNSGALTSGVHTFPAVLQSSGLYSLSSVVTVPSSSLGTQTYICNVNHKPSNTKVDKRVEPKSCDKTHTCPPCPAPEAAGGPSVFLFPPKPKDTLMISRTPEVTCVVVDVSHEDPEVKFNWYVDGVEVHNAKTKPREEQYNSTYRVVSVLTVLHQDWLNGKEYKCKVSNKALPAPIEKTISKAKGQPREPQVYTLPPSREEMTKNQVSLSCAVKGFYPSDIAVEWESNGQPENNYKTTPPVLDSDGSFFLVSKLTVDKSRWQQGNVFSCSVMHEALHNRFTQKSLSLSPG | – | 1 nM | – | – | – | – | –
